Results from patent US20250382580A1, “COMPOSITIONS AND METHODS FOR ACCELERATED PRODUCTION OF THYMIC CELLS FROM PLURIPOTENT STEM CELLS” (The Regents of the University of Colorado, a body Corporate, priority 2022, published 2025).

B1: RANKL: RANK pathway activator, ETP-derived signal (protein, UniProt O14788 140-317, looked up)
Tumor necrosis factor ligand …: IRAEKAMVDGSWLDLAKRSKLEAQPFAHLTINATDIPSGSHKVSLSSWYHDRGWAKISNMTFSNGKLIVNQDGFYYLYANICFRHHETSGDLATEYLQLMVYVTKTSIKIPSSHTLMKGGSTKYWSGNSEFHFYSINVGGFFKLRSGEEISIEVSNPSLLDPDQDATYFGAFKVRDID
B2: CD40L: CD40 pathway activator, ETP-derived signal (protein, UniProt P29965 113-261, looked up)
CD40 ligand, soluble form: MQKGDQNPQIAAHVISEASSKTTSVLQWAEKGYYTMSNNLVTLENGKQLTVKRQGLYYIYAQVTFCSNREASSQAPFIASLCLKSPGRFERILLRAANTHSSAKPCGQQSIHLGGVFELQPGASVFVNVTDPSQVSHGTGFTSFGLLKL

Experiments:
iPSCs = test: Influence of TGF-β signaling on TEP induction from iPSCs, flow cytometry and qPCR on day 14 (Example 2); assay type: cell-based; conditions: TGF-β signaling modulation during AFE stage (days 5-6) and VPE stage (days 7-8); flow cytometry and qPCR day 14
Description: In another exemplary method, the influence of TGF-β signaling during generation of TEPs in two different stages was assessed. FIG. 4A is a schematic illustrating the timelines and culture conditions for the nine protocols performed in the present exemplary method. FIG. 2 provides a chart of agents, modulators, additives, and base mediums used in this and other exemplary methods herein.
For all nine exemplary experimental conditions, on Day 1, iPSCs were plated for differentiation in mTeSR+ supplemented with ROCKi according to the method disclosed above. […]
The 9 protocols testing the effect of TGF-β inhibition (Ly), omission, or activation (T) on TEP induction were tested and analyzed by flow cytometry and qPCR on day 14. FIG. 4B illustrates flow plot quantification of CD205^+EPCAM^+ cells from each differentiation protocol and FIGS. 4C-4E illustrate a qPCR analysis of HOXA3, KRT8, and FOXN1 gene expression in the cells from each differentiation protocol.
During the AFE stage (days 5-6) the influence of: 1) inhibition of TGF-β signaling (Ly—conditions […], 2, and 3); 2) no modulation of TGF-β signaling (conditions 4, 5, and 6); and 3) activation of TGF-β signaling (T—conditions 7, 8, and 9) was assessed. […]

iPSC-derived TEP = test: RANKL, CD40L and NOTCH agonists added in stage 4 or 5 of differentiation, flow cytometry and qPCR (Example 5); assay type: cell-based
Excerpt: FIG. 7 illustrates an exemplary experimental set-up in accordance with certain embodiments of the present disclosure. This experimental set-up for production of add RANKL, CD40L, and NOTCH agonists in different combinations in stage 4 or 5 of differentiation of the progenitor cells.
FIGS. 8A-8B illustrate additional stimulants used to enhance thymic cell production having improved marker representation, 8A and […] illustrate percent representative marker outcome under the varying conditions in accordance with certain embodiments of the present disclosure.
FIGS. 9A-9B illustrate exemplary results from qPCR detection of representative markers FOXN1 and MHC-II (e.g., HLA-DR) protein expression corroborated by gene expression under control and experimental conditions in accordance with certain embodiments of the present disclosure.

Row | Molecule | expression of TEP/TEC markers CD205 and EPCAM, VPE marker HOXA3, TEP markers KRT8 and FOXN1 (iPSCs) | production of FOXN1+EPCAM+ cells (iPSC-derived TEP)
1 | T: TGF-β activation (T), 1 ng/mL TGF-β | no influence | 
2 | B1 |  | did not enhance production
3 | B2 |  | did not enhance production
